Assay results: paper PMC10366546
“And” between values parts separate entries of the source, which are not always exact repeats. Equal values may be shown once.

Molecular target: Ostreolysin A6 (Pleurotus ostreatus)
Experiment: high-speed atomic force microscopy; OlyA6 added (final around 0.35 uM, 5.8 ug/ml) to a d17:1/12:0-CPE/Chol (1:1) supported lipid bilayer on mica, PBS 10 mM pH 7.5, room temperature; self-assembly on the membrane

- stoichiometry N: 6 and 2
Substance: Ostreolysin A6 (natural protein)
